From article PMC11199706

What was measured:
[1] = target: NOPLight (human (NOPR part)); assay: fluorescence response of the sensor on cells (confocal imaging); sensor on AAV-transduced cultured rat cortical neurons in HBSS, 1 µM N/OFQ, ΔF/F0 of membrane pixels
[2] = target: NOPLight (human (NOPR part)); assay: fluorescence response of the sensor on cells (confocal imaging); sensor on transfected HEK293T cells in HBSS, ligand pipetted in at one concentration (1 µM where stated), ΔF/F0 of membrane pixels
[3] = target: NOPLight (human (NOPR part)); assay: fluorescence response of the sensor in acute brain slices (off kinetics); NOPLight expressed in mouse brain (AAV), slices at 31 °C in aCSF, 50 nL of N/OFQ at 10, 50 or 500 nM puffed onto the slice
[4] = target: NOPLight (human (NOPR part)); assay: other fluorescence titration; apparent; NOPLight on transfected HEK293T cells in HBSS, N/OFQ applied manually during confocal imaging (20x), normalised ΔF/F0 fitted with a three-parameter Hill equation
[5] = target: NOPLight (human (NOPR part)); assay: fluorescence response of the sensor on cells (wash-off kinetics); NOPLight on HEK293T cells on coverslips, 37 °C HBSS, 500 nM N/OFQ bath-applied, perfusion turned on after 30 s, mono-exponential decay fit
[6] = target: NOPLight (human (NOPR part)); assay: fluorescence response of the sensor on cells (wash-off kinetics); NOPLight on HEK293T cells under constant perfusion with 37 °C HBSS, about 50 nL of 100 µM N/OFQ puffed onto the cells, mono-exponential decay fit
[7] = target: NOPLight (human (NOPR part)); assay: fluorescence response of the sensor on cells (line-scan confocal imaging, kinetics); NOPLight on HEK293T cells, 37 °C, N/OFQ applied in bolus with Red-Dextran dye, line scan at 800 Hz, mono-exponential association fit
[8] = target: NOPLight (human (NOPR part)); assay: fluorescence response of the sensor in acute brain slices; NOPLight expressed in the mouse arcuate nucleus (AAV), coronal slices perfused with aCSF pH 7.2, increasing N/OFQ (5 nM to 10 µM) bath-applied for 10 min each
[9] = target: NOPLight (human (NOPR part)); assay: other fluorescence titration; apparent; NOPLight on AAV-transduced cultured rat cortical neurons in HBSS, N/OFQ applied manually during confocal imaging (20x), normalised ΔF/F0 fitted with a three-parameter Hill equation

ΔF/F0 upon N/OFQ (1 µM) [1]: 378%
ΔF/F0 upon N/OFQ (1 µM) [2]: 388%
τoff at 10 nM N/OFQ [3]: 30.9 s
τoff at 50 nM N/OFQ [3]: 41.1 s
τoff at 500 nM N/OFQ [3]: 53.1 s
EC50 [4]: 0.0286 µM
τoff (bath application) [5]: 57.1 s
τoff (localized puff application) [6]: 29.9 s
τON (time constant of signal activation) [7]: 595 ms
ΔF/F0 at 10 nM N/OFQ [8]: 1.9%
ΔF/F0 at 10 µM N/OFQ [8]: 73%
EC50 [9]: 0.0428 µM
Binder: FGGFTGARKSARKLANQ [nociceptin/orphanin-FQ peptide]
